These results are taken from article PMC11909739.

The experiment concerns the target KS3AT3 (homodimeric KS-AT didomain fragment of DEBS module 3). The experiment can be described thus: cryo-EM structure.

“ACP3 (standalone acyl carrier protein of DEBS module 3), holo form (domain or fragment)”: the percent of KS3AT3 homodimer particles with one ACP (% of particles) worked out at 50.3, the percent of KS3AT3 homodimer particles with two ACPs (% of particles) is 24.7 and the percent of KS3AT3 homodimer particles with zero ACPs (% of particles) came to 25.
